The values below come from patent publication US20040132093A1 (AVENTIS PHARMA S A, published 2004).

For assay [1], the target named is T1, protein from fusion between YFP and the insulin receptor (Boute et al., 2001) (UniProt P06213 28-1382).
T1 construct: whole, on cells; Specificity control in BRET; also called insulin receptor-YFP; not shown: YFP
Description: BRET in living cells coexpressing the fusion proteins.

The target in assay [2] is T2, OBRs-YFP fusion protein (short form of the leptin receptor fused at its C-terminal end to YFP) (human).
T2 construct: also called OB-R-YFP; acceptor fusion protein
Description: BRET in living cells, fusion proteins expressed in equimolar amounts. How it is done: 48 hours after transfection, HeLa, COS and HEK 293 cells expressing OBR were detached and washed with PBS. 1-2×10⁵ cells were distributed into 96-well optical plates (Packard Instrument Company, Meriden, Conn.) in the presence or absence of ligands, at 25° C. Membranes prepared from cells expressing OBR were used for the measurements of BRET. The substrate, coelenterazine h (Molecular Probes, Eugene, Oreg.), was added at a final concentration of 5 μM and the reading was carried out with a Fusion™ fluoro/luminometer (Packard Instrument Company, Meriden, Conn.), which permits the sequential integration of the luminescence signals detected with two filters (Luc filter: 485+10 nm; YFP filter: 530±12.5 nm). The BRET ratio is defined as the difference in the emission at 530 nm/485 nm of the cotransfected Luc and YFP fusion proteins and the emission at 530 nm/485 nm of the Luc fusion protein alone. The results are expressed in milliBRET units (mBU), 1 mBRET unit corresponding to the value of the BRET ratio multiplied by 1 000. The following ligands were used to determine the specificity of the assay: recombinant human erythropoietin (EPO), insulin (Ins), lipopolysaccharide (LPS, Sigma Aldrich, St. Louis, USA), recombinant human trombopoietin (TPO), GM-CSF, interleukin 3 (IL3), interleukin 6 (IL6), prolactin (PRL), SCF, EGF and TNFα. […]

B1: OBRs-Luc fusion protein (short form of the leptin receptor fused at its C-terminal end to Renilla luciferase) (receptor)
chain: ASISARQEQKLISEEDLTRYPITPWRFKLSCMPPNSTYDYFLLPAGLSKNTSNSNGHYETAVEPKFNSSGTHFSNLSKTTFHCCFRSEQDRNCSLCADNIEGTTFVSTVNSLVFQQIDANWNIQCWLKGDLKLFICYVESLFKNLFRNYNYKVHLLYVLPEVLEDSPLVPQKGSFQMVHCNCSVHECCECLVPVPTAKLNDTLLMCLKITSGGVIFRSPLMSVQPINMVKPDPPLGLHMEITDDGNLKISWSSPPLVPFPLQYQVKYSENSTTVIREADKIVSATSLLVDSILPGSSYEVQVRGKRLDGPGIWSDWSTPRVFTTQDVIYFPPKILTSVGSNVSFHCIYKKENKIVPSKEIVWWMNLAEKIPQSQYDVVSDHVSKVTFFNLNETKPRGKFTYDAVYCCNEHECHHRYAELYVIDVNINISCETDGYLTKMTCRWSTSTIQSLAESTLQLRYHRSSLYCSDIPSIHPISEPKDCYLQSDGFYECIFQPIFLLSGYTMWIRINHSLGSLDSPPTCVLPDSVVKPLPPSSVKAEITINIGLLKISWEKPVFPENNLQFQIRYGLSGKEVQWKMYEVYDAKSKSVSLPVPDLCAVYAVQVRCKRLDGLGYWSNWSNPAYTVVMDIKVPMRGPEFWRIINGDTMKKEKNVTLLWKPLMKNDSLCSVQRYVINHHTSCNGTWSEDVGNHTKFTFLWTEQAHTVTVLAINSIGASVANFNLTFSWPMSKVNIVQSLSAYPLNSSCVIVSWILSPSDYKLMYFIIEWKNLNEDGEIKWLRISSSVKKYYIHDHFIPIEKYQFSLYPIFMEGVGKPKIINSFTQDDIEKHQSDAGLYVIVPVIISSSILLLGTLLISHQRMKKLFWEDVPNPKNCSWAQGLNFQKRTDILDPPARATMTSKVYDPEQRKRMITGPQWWARCKQMNVLDSFINYYDSEKHAENAVIFLHGNAASSYLWRHVVPHIEPVARCIIPDLIGMGKSGKSGNGSYRLLDHYKYLTAWFELLNLPKKIIFVGHDWGACLAFHYSYEHQDKIKAIVHAESVVDVIESWDEWPDIEEDIALIKSEEGEKMVLENNFFVETMLPSKIMRKLEPEEFAAYLEPFKEKGEVRRPTLSWPREIPLVKGGKPDVVQIVRNYNAYLRASDDLPKMFIESDPGFFSNAIVEGAKKFPNTEFVKVKGLHFSQEDAPDEMGKYIKSFVERVLKNEQ
notes: Expressed in COS, HeLa or HEK 293 cells; also assayed in membranes and extracts; also called OB-R-Luc; donor fusion protein
As to B1, the binding result is “no binding” in assay [1] and “binds” in assay [2].
